Measured values as given in patent US20260193375A1 (NORMUNITY, published 2026).
Changes are numbered by the printed parent chain.

T1: Human LY6K (R&D Systems) (human, UniProt Q17RY6 18-138, limits assumed)
T1 construct: Bought from R&D Systems, coated on ELISA plates; also called hLY6K
T1 sequence: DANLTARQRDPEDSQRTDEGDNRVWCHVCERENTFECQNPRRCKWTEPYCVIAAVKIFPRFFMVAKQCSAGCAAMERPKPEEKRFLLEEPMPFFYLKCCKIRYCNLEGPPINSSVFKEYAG

T2: human LY6E (R&D Systems) (human, UniProt Q16553 21-101, limits assumed)
T2 construct: also called hLY6E
T2 sequence (looked up): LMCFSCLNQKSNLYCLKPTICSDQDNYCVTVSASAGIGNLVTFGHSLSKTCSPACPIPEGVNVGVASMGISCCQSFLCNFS

T3: cell-surface anchored LY6K (human, UniProt Q17RY6 18-138)
T3 construct: the cell is named under assay; also called LY6K on target cells
T3 sequence: T1 sequence

T4: recombinant human LY6K (Wuxi) (human, UniProt Q17RY6 18-138)
T4 construct: Limits of the construct not clearly stated; also called Human LY6K (Wuxi LY^KGLY138(1-38TR)_8His)
T4 sequence: T1 sequence

T5: rLY6K-mFc (rat)
T5 chain: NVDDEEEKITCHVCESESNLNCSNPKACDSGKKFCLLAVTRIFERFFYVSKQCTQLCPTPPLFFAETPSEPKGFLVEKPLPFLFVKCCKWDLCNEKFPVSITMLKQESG

T6: hLY6K-his (human, UniProt Q17RY6 18-138, limits assumed)
T6 construct: not shown: his tag
T6 sequence: T1 sequence

T7: hLY6K-mFc (human, UniProt Q17RY6 18-138)
T7 construct: not shown: mFc
T7 sequence: T1 sequence

T8: Ly6D
T8 chain: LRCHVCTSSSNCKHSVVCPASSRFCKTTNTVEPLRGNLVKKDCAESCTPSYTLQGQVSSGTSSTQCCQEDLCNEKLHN

T9: Ly6H
T9 chain: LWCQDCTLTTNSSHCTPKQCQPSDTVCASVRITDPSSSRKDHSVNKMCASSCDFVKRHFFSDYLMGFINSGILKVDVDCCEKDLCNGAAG

B1: anti-LY6K antibody 3520 (antibody, V domains shown)
VH: QVQLVQSGSELKKPGASVKVSCKASGYTFTLYAMNWVRQAPGQGLEWMGWINTNTGNPTYAQGFTGRFVFSLDTSVSTAYLQISSLKAEDTAVYYCARTNWNSWGQGTMVTVSS
VL: DIQMTQSPSSLSASVGDRVTITCQASQDISNYLHWFQQKPGKAPKLLIYDASNLETGVPSRFSGSGSGTDFTFTIFSLQPEDIATYYCQHYDNLPLTFGGGTKVEIK
B2: anti-LY6K antibody 3522 (antibody, V domains shown)
VH: QVQLQQSGPGLVKPSQTLSLTCAISGDSVSSNSAAWNWIRQSPSRGLEWLGRTYYRSKWYNDYAVSVKSRITINPDTSKNQFSLQLNSVTPEDTAVYYCARECSGSYYRFDPWGQGTLVTVSS
VL: DIVMTQTPLSSPVTLGQPASISCRSSQSLVHSNGNTYLSWLQQRPGQPPRLLIYKISHRFSGVPDRFSGSGAGTDFTLKIRRVEAEDVGVYYCMQATQFPYTFGQGTKLEIK
B3: anti-LY6K antibody 3503 (antibody, V domains shown)
VH: EVQLVESGGGLVKPGGSLRLSCAASGFIFSSYSMNWVRQAPGKGLEWVSSISSSSSYIYYADSEKGRFTISRDNAKNSLYLQMNSLRAEDTAVYYCARQSTVVTSDYYYYYMDVWGKGTTVTVSS
VL: DIQMTQSPSSLSASVGDRVTITCRASQSISNYLNWYQQKPGKAPNLLIYAASSLQSGVPSRFSGSGSGTDFTLTISSLQPEDFATYYCQQSYSPPITFGQGTRLEIK
B4: anti-LY6K antibody 3746 (antibody, V domains shown)
VH: B3 VH
VL: B3 VL
B5: anti-LY6K antibody 3082 (antibody, V domains shown)
VH: EVQLVESGGGLVKPGGSLRLSCAASGFTFSSSSMNWVRQAPGKGLEWVSSISRSSYYIYYADSVEGRFTISRDNAKNSLYLQMNSLRAEDTAVYYCAKIGSSSEGVEDYYYYYYMDVWGKGTTVTVSS
VL: B3 VL with S28N, S30N, N31S, N45K, Q89H, P94T, I96L, Q100G, R103K, L104V
B6: anti-LY6K antibody 3704 (antibody, V domains shown)
VH: EVQLVESGGGLVQPGRSLRLSCAASGFTFDDYAMHWVRQAPGKGLEWVSGISWKIITIGYADSVKGRFTISRDNVKNSLYLQMNSLRAEDTALYYCAKDSRTGLDYWGQGTLVTVSS
VL: DIQMTQSPSSLSASVGDRVTITCRASQTISSYLNWYQQKPGKAPKLLIYAASSLQSGVPSRFSGSGSGTDFTLTISSLQPEDFATYYCQQTYTAPLTFGPGTKVDIK
B7: anti-LY6K antibody 3507 (antibody, V domains shown)
VH: EVQLVESGGGLVKPGGSLRLSCAASGFTFSSYSMNWVRQAPGKGLEWVSSISSSSDYIYYADSVKGRFTISRDDAKNSLYLQMNSLRAEDTAVYYCARGLEPNYYYYMDVWGKGTTVTVSS
VL: EIVMTQSPGTLSVSPGERATLSCRASQSVSSSYLAWYQQKPGQAPRLLIYGASTRATGIPARFSGSGSGTEFTLTISSLQSEDFAVYYCQQYNNWPLTFGGGTKVEIK
B8: anti-LY6K antibody 3724 (antibody, V domains shown)
VH: QLQLQESGPGLVKPSETLSLTCTVSGGSINSKSYYWDWIRQPPGKGLEWIGNIYYSGSTYYNPSLKSRVTISVDTSKNQFSLKLSSVTATDTAVYYCARHRGVTVTTYWYFDLWGRGTLVTVSS
VL: EIVLTQSPDFQSVTPKEKVTITCRASQSIGNSLHWYQQKSDQSPKLLIKYVSQSFSGVPSRFSGSGSGTDFTLTINSLEAEDAATYYCHQSSDFPHTFGQGTKLEIK
B9: anti-LY6K antibody 3047 (antibody, V domains shown)
VH: EVQLVESGGGLVQPGGSLRLSCAASGFTFSSYSMNWVRQAPGKGLEWVSGINWNGGSTGYADSVKGRFTISRDNAKNSLYLQMNSLRAEDTALYYCARGRLFDYWGQGTLVTVSS
VL: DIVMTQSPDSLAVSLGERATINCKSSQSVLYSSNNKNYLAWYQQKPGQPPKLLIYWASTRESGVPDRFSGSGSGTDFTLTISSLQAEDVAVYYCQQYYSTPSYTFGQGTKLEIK

target: T1, Human LY6K (R&D Systems); assay: ELISA, coated antigen, IgG1 at 10 ug/ml

% of maximum of commercial anti-LY6K mAb on human LY6K | Binder
61.2% | B1
2.1% | B2
66.6% | B3
76.9% | B4
87.2% | B5
2.2% | B6
2.6% | B7
6.2% | B8

target: T10, cynomolgus monkey LY6K (R&D Systems) (cynomolgus monkey); assay: ELISA, coated antigen, IgG1 at 10 ug/ml
T10 construct: also called cyLY6K

% of maximum of commercial anti-LY6K mAb on human LY6K | Binder
3% | B9
13.6% | B1
2.6% | B2
76.4% | B3
78.7% | B4
95.2% | B5
2% | B6
2.6% | B7
3.2% | B8

target: T11, rat LY6K (R&D Systems) (rat); assay: ELISA, coated antigen, IgG1 at 10 ug/ml
T11 construct: also called rLY6K

% of maximum of commercial anti-LY6K mAb on human LY6K | Binder
1.5% | B9
0.7% | B1
0.7% | B2
0.7% | B3
3.1% | B4
-0.5% | B5
0.6% | B6
-1.2% | B7
3.3% | B8

target: T2, human LY6E (R&D Systems); assay: ELISA, coated antigen, IgG1 at 10 ug/ml

% of maximum of commercial anti-LY6K mAb on human LY6K | Binder
1.7% | B9
2.8% | B1
4.3% | B2
2.9% | B3
1.2% | B4
2.1% | B5
3.2% | B6
1.7% | B7
3.9% | B8

target: T3, cell-surface anchored LY6K; assay: IHC, paraffin sections of 293 cells overexpressing LY6K

binding result | Binder
no binding (tested: 5 ug/ml) | B2
no binding (tested: 5 ug/ml) | B6
no binding (tested: 5 ug/ml) | B7
no binding (tested: 5 ug/ml) | B8

target: T4, recombinant human LY6K (Wuxi); assay: ELISA, LY6K coated at 2 ug/mL, HRP-labelled mAb titrated

EC50 | Binder
2.34 nM | B1
2.67 nM | B3
3.04 nM | B4
4.59 nM | B5

Target: T5, rLY6K-mFc
Assay: SPR (Carterra LSA), mAb captured on anti-human IgG-Fc, antigen as analyte

Kd | Binder
129 nM | B9
240 nM | B5

target: T6, hLY6K-his; assay: as above

Kd | Binder | binding result
31.9 nM | B1 | –
– | B2 | no binding (tested: up to 1.266-6 M as printed)
3.49 nM | B3 | –
2.5 nM | B4 | –
2.06 nM | B5 | –

target: T7, hLY6K-mFc; assay: as above

Kd | Binder | binding result
2720 nM | B9 | –
0.373 nM | B1 | –
– | B2 | no binding (tested: up to 1.266-6 M as printed)
0.0553 nM | B3 | –
0.0362 nM | B4 | –
0.0444 nM | B5 | –

target: cyLY6K-mFc (cynomolgus monkey); assay: as above

Kd | Binder
21600 nM | B9
117 nM | B1
0.197 nM | B3
0.216 nM | B4
0.103 nM | B5

Target: T8, Ly6D
Assay: ELISA, antigen coated on the plate, antibody as human IgG1, anti-human F(ab)2 HRPO

binding result | Binder
no binding (tested: 10 µg/ml) | B1
no binding (tested: 10 µg/ml) | B3
no binding (tested: 10 µg/ml) | B5

Target: T9, Ly6H
Assay: as above

binding result | Binder
no binding (tested: 10 µg/ml) | B1
no binding (tested: 10 µg/ml) | B3
no binding (tested: 10 µg/ml) | B5

target: T2, human LY6E (R&D Systems); assay: as above

binding result | Binder
no binding (tested: 10 µg/ml) | B1
no binding (tested: 10 µg/ml) | B3
no binding (tested: 10 µg/ml) | B5

target: T3, cell-surface anchored LY6K; assay: flow cytometry on target cells, MFI fitted in Prism; flow cytometry, live target cells, 4 degrees C

EC50 | Binder
3.61 nM | B1
0.576 nM | B3
3.21 nM | B4

target: T4, recombinant human LY6K (Wuxi); assay: capture ELISA (MSD): antibody coated as capture at 2 µg/mL, recombinant human LY6K titrated, sulfo-tagged polyclonal anti-hLY6K (AF6648) for detection; EC50 is the LY6K concentration

EC50 | Binder
0.536 µg/mL | B1
0.064 µg/mL | B3
0.0958 µg/mL | B5
